# Data: US20240190958A1, “NOVEL ANTIBODY DRUG CONJUGATES WITH NOVEL NAPI2B ANTIBODIES, THERAPEUTIC METHODS AND USES THEREOF” (Tubulis GmbH, priority 2022, published 2024)
# Biological target: recombinant human FcγRIIa/CD32 R131 (Lumit binding immunoassay) (human) (UniProt P12318)
# Test: Lumit FcγRIIa (CD32) (R131) Binding Immunoassay (Promega), competition with Tracer-LgBiT for FcγR-SmBiT, luminescence, n=1; right panel
# Sequence of recombinant human FcγRIIa/CD32 R131 (Lumit binding immunoassay) (human) (P12318 34-217 H167R limits assumed): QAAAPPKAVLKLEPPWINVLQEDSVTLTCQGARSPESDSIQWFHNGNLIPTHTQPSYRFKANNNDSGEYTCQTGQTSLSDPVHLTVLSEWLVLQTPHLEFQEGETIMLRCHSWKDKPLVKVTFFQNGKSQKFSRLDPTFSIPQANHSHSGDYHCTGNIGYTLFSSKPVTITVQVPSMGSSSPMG
substance,measurement,value
IgG1 positive control (standard of the Lumit FcγR Binding Immunoassays) (antibody),IC50 (read off the curve),3 µg/mL
